Reference: PMC11648230, “Structure–function analysis of tRNA t^6A-catalysis, assembly, and thermostability of Aquifex aeolicus TsaD2B2 tetramer in complex with TsaE” (The Journal of Biological Chemistry, 2024)
One block for each binder: values may come before it.

How the values were obtained:
[1] = molecular target: Aquifex aeolicus TsaD^Δ34–382B2 tetramer (Aquifex aeolicus) (UniProt O66986)
[2] = molecular target: Aquifex aeolicus TsaD2B2 tetramer (Aquifex aeolicus) (UniProt O66986)
[3] = molecular target: Aquifex aeolicus TsaD2B^mut2 tetramer (Aquifex aeolicus | Thermotoga maritima) (UniProt O66986)
[4] = substrate: Nc1ncnc2c1ncn2[C@@H]1O[C@H](COP(=O)(O)OP(=O)(O)OP(=O)(O)O)[C@@H](O)[C@H]1O; test: NADH-coupled ATPase assay; format: biochemical, Aquifex aeolicus; conditions: 10 uM TsaE alone, 10 mM MgCl2, 100 mM KCl, pH 7.5, 37 °C
Source text: NADH-coupled ATPase assay on A. aeolicus TsaE (AaTsaE)

[5] = substrate: Nc1ncnc2c1ncn2[C@@H]1O[C@H](COP(=O)(O)OP(=O)(O)OP(=O)(O)O)[C@@H](O)[C@H]1O; test: NADH-coupled ATPase assay; format: biochemical, Aquifex aeolicus; conditions: 10 uM TsaE with 5 uM TsaD2B2, no tRNA, 10 mM MgCl2, 100 mM KCl, pH 7.5, 37 °C
Source text: NADH-coupled ATPase assay on A. aeolicus TsaD2B2E2

Chain of Aquifex aeolicus TsaD^Δ34–382B2 tetramer (Aquifex aeolicus) (O66986 other isoform, or with tags, fused parts or gaps mutant, chain 1 of 2): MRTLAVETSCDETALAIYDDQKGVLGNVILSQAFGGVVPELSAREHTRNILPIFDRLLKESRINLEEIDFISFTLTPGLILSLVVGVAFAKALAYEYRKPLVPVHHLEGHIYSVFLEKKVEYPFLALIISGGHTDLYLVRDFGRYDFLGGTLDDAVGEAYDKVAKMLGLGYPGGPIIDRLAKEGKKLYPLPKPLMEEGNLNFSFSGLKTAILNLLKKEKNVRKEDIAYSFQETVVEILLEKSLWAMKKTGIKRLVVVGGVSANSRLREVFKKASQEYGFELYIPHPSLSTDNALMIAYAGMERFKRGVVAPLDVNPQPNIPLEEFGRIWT
Chain of Aquifex aeolicus TsaD^Δ34–382B2 tetramer (Aquifex aeolicus) (partner O66494, as listed by the source mutant, chain 2 of 2): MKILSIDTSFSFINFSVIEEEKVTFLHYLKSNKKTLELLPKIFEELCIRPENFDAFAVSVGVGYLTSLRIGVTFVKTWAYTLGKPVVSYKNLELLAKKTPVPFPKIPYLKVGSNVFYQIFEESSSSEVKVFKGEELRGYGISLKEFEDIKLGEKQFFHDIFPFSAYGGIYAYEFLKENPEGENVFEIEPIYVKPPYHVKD
Chain of Aquifex aeolicus TsaD2B^mut2 tetramer (Aquifex aeolicus | Thermotoga maritima) (O66986 whole entry, looked up): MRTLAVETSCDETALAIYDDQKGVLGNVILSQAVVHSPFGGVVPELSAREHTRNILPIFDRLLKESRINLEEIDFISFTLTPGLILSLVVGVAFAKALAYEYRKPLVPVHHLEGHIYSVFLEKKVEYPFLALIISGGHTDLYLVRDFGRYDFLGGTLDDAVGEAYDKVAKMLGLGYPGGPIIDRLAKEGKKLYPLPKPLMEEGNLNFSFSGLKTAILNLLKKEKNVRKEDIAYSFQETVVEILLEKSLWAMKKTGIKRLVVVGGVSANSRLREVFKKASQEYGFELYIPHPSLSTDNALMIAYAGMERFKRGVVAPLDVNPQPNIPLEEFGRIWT
Chain of Aquifex aeolicus TsaD2B2 tetramer (Aquifex aeolicus) (O66986 whole entry, chain 1 of 2): as the sequence (O66986 whole entry, looked up) above
Chain of Aquifex aeolicus TsaD2B2 tetramer (Aquifex aeolicus) (partner O66494, as listed by the source, chain 2 of 2): as the sequence (partner O66494, as listed by the source mutant, chain 2 of 2) above

Vmax of ATP to ADP hydrolysis by 10 μM TsaE with 5 μM TsaD^Δ34–382B2 (NADH-coupled assay, 37 °C) [1]: 0.219 µM/s
kcat of ATP to ADP hydrolysis by 10 μM TsaE with 5 μM TsaD^Δ34–382B2 (NADH-coupled assay, 37 °C) [1]: 0.044 s⁻¹
Vmax of ATP to ADP hydrolysis by 10 μM TsaE with 5 μM TsaD2B2 (NADH-coupled assay, 37 °C); TsaE alone 0.0374 [2]: 0.0982 µM/s
kcat of ATP to ADP hydrolysis by 10 μM TsaE with 5 μM TsaD2B2 (NADH-coupled assay, 37 °C); TsaE alone 0.007 [2]: 0.02 s⁻¹
Vmax of ATP to ADP hydrolysis by 10 μM TsaE with 5 μM TsaD2B^mut2 (NADH-coupled assay, 37 °C) [3]: 0.125 µM/s
kcat of ATP to ADP hydrolysis by 10 μM TsaE with 5 μM TsaD2B^mut2 (NADH-coupled assay, 37 °C) [3]: 0.025 s⁻¹
B1: Aquifex aeolicus TsaE (enzyme)
chain: MELLKEVILESEEDTYKLAEEIAQLLKGSEVICLRGTLGAGKTTFVKALAKALKVKNPSAVRSPTFTLVNEYETDKGKLIHIDLYRVPDFDYSEFIGEGILAVEWEERDKPCDIILEIEILDENKRKVRIYRK

B2: A. aeolicus TsaE (AaTsaE) (Aquifex aeolicus VF5) (protein)
chain: MELLKEVILESEEDTYKLAEEIAQLLKGSEVICLRGTLGAGKTTFVKALAKALKVKNPSAVRSPTFTLVNEYETDKGKLIHIDLYRVPDFDYSEFIGEGILAVEWEERDKPCDIILEIEILDENKRKVRIYRK
notes: recombinant from E. coli (plasmid pET24d-BC11_Eop); monomer
Km [4]: 96 ± 44.9 µM
Vmax [4]: 2.24 µM/min
kcat [4]: 0.007 ± 0.0007 s⁻¹
kcat/Km [4]: 78 M⁻¹ s⁻¹

B3: A. aeolicus TsaD2B2E2 (Aquifex aeolicus VF5) (protein)
chain: MELLKEVILESEEDTYKLAEEIAQLLKGSEVICLRGTLGAGKTTFVKALAKALKVKNPSAVRSPTFTLVNEYETDKGKLIHIDLYRVPDFDYSEFIGEGILAVEWEERDKPCDIILEIEILDENKRKVRIYRK
notes: recombinant from E. coli; with tRNA N6-adenosine threonylcarbamoyltransferase; tRNA threonylcarbamoyladenosine biosynthesis protein TsaB
Km [5]: 228 ± 47.9 µM
Vmax [5]: 5.89 µM/min
kcat [5]: 0.02 ± 0.0012 s⁻¹
kcat/Km [5]: 86 M⁻¹ s⁻¹
